Reference: the supplement of paper PMC9112550, “Optimization of the antimicrobial peptide Bac7 by deep mutational scanning” (BMC Biology, 2022)

System: Escherichia coli TOP10
Test: shrunken log2 fold change of peptide-encoding DNA abundance (4.5 h post-induction vs induction); higher = less antimicrobial activity (less host growth inhibition)
Settings: time post-induction: 4.5 h; library: site-saturation at positions 5, 18, 19, 20
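Also: peptides expressed intracellularly from a pBAD plasmid library in pooled LB shake-flask culture, induced with 0.3% L-arabinose, DNA abundance read by NGS, three biological replicates, DESeq2 with apeglm shrinkage.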

Sequence | shrunken log2 fold change
RRIRARPPRLPRPRPRPPTNPRP | 0.678
RRIRARPPRLPRPRPRPPVEPRP | 0.292
RRIRARPPRLPRPRPRPPVLPRP | 0.214
RRIRARPPRLPRPRPRPPVTPRP | 0.354
RRIRARPPRLPRPRPRPPYAPRP | 0.251
RRIRARPPRLPRPRPRPPYSPRP | -0.0108
RRIRARPPRLPRPRPRPQADPRP | -0.119
RRIRARPPRLPRPRPRPQASPRP | 0.242
RRIRARPPRLPRPRPRPQCLPRP | 0.23
RRIRARPPRLPRPRPRPQDWPRP | 0.556
RRIRARPPRLPRPRPRPQGRPRP | 0.104
RRIRARPPRLPRPRPRPQKSPRP | 0.0945
RRIRARPPRLPRPRPRPQLNPRP | -0.0125
RRIRARPPRLPRPRPRPQMGPRP | -0.0713
RRIRARPPRLPRPRPRPQMMPRP | 0.129
RRIRARPPRLPRPRPRPQNGPRP | -0.106
RRIRARPPRLPRPRPRPQQVPRP | 0.0996
RRIRARPPRLPRPRPRPQRTPRP | 0.11
RRIRARPPRLPRPRPRPQRYPRP | -0.071
RRIRARPPRLPRPRPRPQSTPRP | 0.0836
RRIRARPPRLPRPRPRPQSVPRP | -0.037
RRIRARPPRLPRPRPRPQTEPRP | 0.292
RRIRARPPRLPRPRPRPQTGPRP | 0.242
RRIRARPPRLPRPRPRPQTHPRP | 0.491
RRIRARPPRLPRPRPRPQVHPRP | 0.102

Sequence | shrunken log2 fold change
RRIRARPPRLPRPRPRPQVNPRP | -0.196
RRIRARPPRLPRPRPRPQVTPRP | 0.356
RRIRARPPRLPRPRPRPQYNPRP | -0.334
RRIRARPPRLPRPRPRPRDRPRP | 0.706
RRIRARPPRLPRPRPRPRESPRP | 0.198
RRIRARPPRLPRPRPRPREVPRP | 0.738
RRIRARPPRLPRPRPRPRFLPRP | 0.371
RRIRARPPRLPRPRPRPRGNPRP | 0.494
RRIRARPPRLPRPRPRPRHCPRP | -0.0733
RRIRARPPRLPRPRPRPRHKPRP | 0.316
RRIRARPPRLPRPRPRPRHMPRP | -0.00102
RRIRARPPRLPRPRPRPRKIPRP | 0.429
RRIRARPPRLPRPRPRPRKKPRP | 0.404
RRIRARPPRLPRPRPRPRKSPRP | 0.778
RRIRARPPRLPRPRPRPRLRPRP | 0.514
RRIRARPPRLPRPRPRPRNAPRP | 0.485
RRIRARPPRLPRPRPRPRNSPRP | -0.0469
RRIRARPPRLPRPRPRPRNTPRP | 0.146
RRIRARPPRLPRPRPRPRPIPRP | 0.719
RRIRARPPRLPRPRPRPRPLPRP | 0.707
RRIRARPPRLPRPRPRPRPMPRP | 0.771
RRIRARPPRLPRPRPRPRTEPRP | 0.391
RRIRARPPRLPRPRPRPRVSPRP | 0.492
RRIRARPPRLPRPRPRPRYAPRP | 0.495
RRIRARPPRLPRPRPRPRYQPRP | -0.274

Sequence | shrunken log2 fold change
RRIRARPPRLPRPRPRPSCKPRP | -0.291
RRIRARPPRLPRPRPRPSCSPRP | 0.0274
RRIRARPPRLPRPRPRPSDTPRP | -0.339
RRIRARPPRLPRPRPRPSEDPRP | 0.396
RRIRARPPRLPRPRPRPSFGPRP | 1.08
RRIRARPPRLPRPRPRPSHGPRP | 0.115
RRIRARPPRLPRPRPRPSHHPRP | -0.309
RRIRARPPRLPRPRPRPSHIPRP | -0.523
RRIRARPPRLPRPRPRPSIAPRP | 0.186
RRIRARPPRLPRPRPRPSIFPRP | -0.101
RRIRARPPRLPRPRPRPSIKPRP | -0.133
RRIRARPPRLPRPRPRPSIWPRP | 0.352
RRIRARPPRLPRPRPRPSKTPRP | 0.314
RRIRARPPRLPRPRPRPSKYPRP | -0.464
RRIRARPPRLPRPRPRPSMRPRP | 1.03
RRIRARPPRLPRPRPRPSPAPRP | 0.616
RRIRARPPRLPRPRPRPSPDPRP | 0.553
RRIRARPPRLPRPRPRPSPKPRP | 0.303
RRIRARPPRLPRPRPRPSRIPRP | 0.163
RRIRARPPRLPRPRPRPSSFPRP | -0.196
RRIRARPPRLPRPRPRPSTRPRP | 0.23
RRIRARPPRLPRPRPRPSVCPRP | 0.348
RRIRARPPRLPRPRPRPSVGPRP | 0.324
RRIRARPPRLPRPRPRPSVTPRP | 0.0595
RRIRARPPRLPRPRPRPSWIPRP | -0.0935

Sequence | shrunken log2 fold change
RRIRARPPRLPRPRPRPSYAPRP | -0.165
RRIRARPPRLPRPRPRPTAHPRP | 0.485
RRIRARPPRLPRPRPRPTCQPRP | 0.431
RRIRARPPRLPRPRPRPTCSPRP | 0.483
RRIRARPPRLPRPRPRPTDEPRP | 0.594
RRIRARPPRLPRPRPRPTDHPRP | 0.0934
RRIRARPPRLPRPRPRPTEAPRP | 0.453
RRIRARPPRLPRPRPRPTFAPRP | 0.347
RRIRARPPRLPRPRPRPTFDPRP | 0.399
RRIRARPPRLPRPRPRPTGDPRP | 0.604
RRIRARPPRLPRPRPRPTGEPRP | 0.0455
RRIRARPPRLPRPRPRPTGRPRP | 0.215
RRIRARPPRLPRPRPRPTIGPRP | 0.176
RRIRARPPRLPRPRPRPTLHPRP | 0.584
RRIRARPPRLPRPRPRPTLSPRP | 0.801
RRIRARPPRLPRPRPRPTMKPRP | 0.296
RRIRARPPRLPRPRPRPTNQPRP | 0.153
RRIRARPPRLPRPRPRPTPAPRP | 1.05
RRIRARPPRLPRPRPRPTPDPRP | 0.848
RRIRARPPRLPRPRPRPTPHPRP | 0.598
RRIRARPPRLPRPRPRPTQWPRP | 0.457
RRIRARPPRLPRPRPRPTSNPRP | 0.00789
RRIRARPPRLPRPRPRPTSTPRP | 0.0502
RRIRARPPRLPRPRPRPTVAPRP | 0.779
RRIRARPPRLPRPRPRPTVLPRP | 0.106

Sequence | shrunken log2 fold change
RRIRARPPRLPRPRPRPTVRPRP | 0.302
RRIRARPPRLPRPRPRPTVTPRP | 0.707
RRIRARPPRLPRPRPRPTVVPRP | 0.238
RRIRARPPRLPRPRPRPTWLPRP | 0.33
RRIRARPPRLPRPRPRPTWSPRP | 0.67
RRIRARPPRLPRPRPRPTYMPRP | -0.36
RRIRARPPRLPRPRPRPTYTPRP | -0.0355
RRIRARPPRLPRPRPRPVAGPRP | 0.35
RRIRARPPRLPRPRPRPVCSPRP | 0.665
RRIRARPPRLPRPRPRPVDRPRP | 0.193
RRIRARPPRLPRPRPRPVDTPRP | 0.186
RRIRARPPRLPRPRPRPVEFPRP | 0.108
RRIRARPPRLPRPRPRPVFVPRP | 0.179
RRIRARPPRLPRPRPRPVGEPRP | 0.482
RRIRARPPRLPRPRPRPVGGPRP | 0.571
RRIRARPPRLPRPRPRPVGSPRP | 0.383
RRIRARPPRLPRPRPRPVGTPRP | 0.441
RRIRARPPRLPRPRPRPVHKPRP | 0.2
RRIRARPPRLPRPRPRPVKLPRP | -0.59
RRIRARPPRLPRPRPRPVKTPRP | 0.232
RRIRARPPRLPRPRPRPVLFPRP | 0.268
RRIRARPPRLPRPRPRPVLGPRP | 0.419
RRIRARPPRLPRPRPRPVLIPRP | -0.179
RRIRARPPRLPRPRPRPVLRPRP | 0.228
RRIRARPPRLPRPRPRPVLWPRP | 2.26

Sequence | shrunken log2 fold change
RRIRARPPRLPRPRPRPVMFPRP | 0.283
RRIRARPPRLPRPRPRPVPDPRP | 0.493
RRIRARPPRLPRPRPRPVPSPRP | 0.181
RRIRARPPRLPRPRPRPVPWPRP | 0.452
RRIRARPPRLPRPRPRPVSTPRP | -0.0272
RRIRARPPRLPRPRPRPVTCPRP | 0.0514
RRIRARPPRLPRPRPRPVTNPRP | 0.275
RRIRARPPRLPRPRPRPVVCPRP | 0.224
RRIRARPPRLPRPRPRPVWNPRP | 0.0865
RRIRARPPRLPRPRPRPVYEPRP | -0.426
RRIRARPPRLPRPRPRPVYNPRP | -0.482
RRIRARPPRLPRPRPRPVYRPRP | 0.144
RRIRARPPRLPRPRPRPWASPRP | -0.145
RRIRARPPRLPRPRPRPWATPRP | 0.494
RRIRARPPRLPRPRPRPWCRPRP | 0.0486
RRIRARPPRLPRPRPRPWEGPRP | 0.209
RRIRARPPRLPRPRPRPWESPRP | 0.192
RRIRARPPRLPRPRPRPWFYPRP | 0.0676
RRIRARPPRLPRPRPRPWHHPRP | -0.168
RRIRARPPRLPRPRPRPWHMPRP | -0.361
RRIRARPPRLPRPRPRPWIDPRP | -0.0113
RRIRARPPRLPRPRPRPWIKPRP | -0.0328
RRIRARPPRLPRPRPRPWIMPRP | -0.332
RRIRARPPRLPRPRPRPWKNPRP | -0.145
RRIRARPPRLPRPRPRPWKVPRP | -0.279
